Data from the supplement of paper PMC12764529.
± gives the half width of the 95% confidence interval.

Experiments:
[1] = folding stability dG unfold from trypsin proteolysis; higher = more stable
Method in brief: (§1)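 Designed mini-proteins with no cysteine and under 80 residues were kept only if AlphaFold2 dimer inter-PAE was above 15. In a PA-tagged cDNA display construct, they were digested with trypsin and chymotrypsin and then sequenced. K50 was inferred by Bayesian fitting of counts, and unfolding free energy was derived per protease or combined against a sequence-predicted unfolded-state K50 and a shared folded-state K50.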

[2] = folding stability dG unfold (combined trypsin and chymotrypsin); higher = more stable
Method in brief: as §1

[3] = folding stability dG unfold from chymotrypsin proteolysis; higher = more stable
Method in brief: as §1

Sequence | folding stability dG unfold [1] [kcal/mol] | folding stability dG unfold [2] [kcal/mol] | folding stability dG unfold [3] [kcal/mol]
SAGSKEFPFESEFEFEGYRVKVEVKVRVEFDENGKPTKNFKPEIKIEIKPLPPKPVITAEEALKLDPEKSAG [r14_442_TrMRF] | 0.114 ± 0.19 | 1.47 ± 0.3 | 1.93 ± 0.14
SAGSKVPVTATATFSDKAELEKTVADIKAKTGYDIEVTYDPNSNSYTITVNTTDEVVKMLKEKGFKLESAGG [r19_306_JUSTAS] | 2.33 ± 0.13 | 2.14 ± 0.28 | 1.94 ± 0.13
SAGSLELPPGVSEVVYDPSSGVYSVRYPDGTLVQVDVLYEPDPFVDELHPVAFVSVYSPTSLLATAPLNSAG [r5_109_TrMRF] | 0.821 ± 0.019 | 0.979 ± 0.067 | 1.07 ± 0.11
SAGSMKIKIKAKVPPGPYRIRIMWQYPGGDFKPVEEETVDPGQEVKIPIEFPDGKPFDPDNIRVMIEPPSAG [r5_287_TrROS] | 1.44 ± 0.14 | 2.08 ± 0.25 | 2.47 ± 0.097
SAGSMLLIKITITFKDPNGNLLKTIPIEKEADPNDPEAIEKAKEEAEKLAEELLPEDELAEVKAEVLLLSAG [r5_793_JUSTAS] | 1.73 ± 0.11 | 2.24 ± 0.19 | 2.36 ± 0.097
SAGSMRTRKYEVERGEDEIVFPLPDGKVLRLPPDVGATVEVEYDPDGPPVRVTVRFPDGADYVLPYEELSAG [r5_45_JUSTAS] | -0.531 ± 0.45 | 0.69 ± 0.15 | 1.11 ± 0.15
SAGSPATLRAQAEEEARALAAELGAEVTVDVTVEPVPGEYVVRTTATLTFPGGEVRTLPRTTRVPRSLVSAG [r5_609_JUSTAS] | 0.671 ± 0.071 | 0.953 ± 0.08 | 1.09 ± 0.08
SAGSPEELAEKIAEELAAEYEKKNPDKKPVKIEVKEVVVDPEGGSVTIKIKFYDPDGKPLAEPVITVESAGG [r19_53_JUSTAS] | 1.74 ± 0.17 | 1.76 ± 0.21 | 1.85 ± 0.13
SAGSPSIVRTPSLTYDPDPRNPSTPRLRQASVTATNPNGETITFTFTSLEDMDAALNAWIAANPELLSSAGG [r19_123_JUSTAS] | 0.59 ± 0.11 | 1.38 ± 0.08 | 1.74 ± 0.089
SAGSPVTLELRVTRPRADAATGAPATATETVTVTLPAAVVAAGLSPEEIARLLEAANPGATVELTAVASAGG [r19_110_JUSTAS] | 0.844 ± 0.052 | 0.582 ± 0.07 | 0.259 ± 0.14
SAGSRILERLREEGLTITKVTSVEKGPGYERIEVETALPDGTTGKVKVTRDPADPDKIEVELEFTPAEVSAG [r5_683_JUSTAS] | 0.797 ± 0.022 | 1.38 ± 0.052 | 1.71 ± 0.023
SAGSRTVTLTFYRPLSRPPGGAPVVREAERTVTLNLPDDTLSEEEIEALAEELRAEHPDVEVEITIDDSAGG [r19_369_JUSTAS] | 0.664 ± 0.049 | 1.18 ± 0.17 | 1.41 ± 0.092
SAGSSETYSFKSPEEAKKKLKEEYGVSVEELPGNRVRINLVLDNKPVVVLIDTSTNLATVVSPEVVERKSAG [r14_402_JUSTAS] | -0.219 ± 0.21 | -0.257 ± 0.23 | -0.291 ± 0.8
SAGSSISSISRSPVSTEEDPSTNVRRTTYLEKYPGPPNLLKEVTVTTTFAPDGTPTVTPAVTTLSPALLSAG [r5_48_JUSTAS] | -0.817 ± 0.26 | -0.717 ± 0.17 | -0.899 ± 0.68
SAGSSLRLELDLEVTLYAPVVSVRPDGSLSLVPGSTRPIPVRLRVTFELTLDPDNPLNVSINVDIEADFSAG [r14_274_TrMRF] | 4.1 ± 0.076 | > 6 | 5.9 ± 0.081
SAGSSLTTTSTTTFPGTVRVTTKTPDGKTFTLTVSVSTVPTPDGRVVPSVTTTMDPAARSSNVSPEVDRSAG [r5_462_JUSTAS] | -0.463 ± 0.17 | -0.144 ± 0.086 | -0.0322 ± 0.075
SAGSVTTITDPAGTTTEIQPLPDGSLLTTTTTHTTNPATGGATTTTTTTLVSPVPGQPSTTTSTTTTPASAG [r5_424_JUSTAS] | 1.58 ± 0.039 | 1 ± 0.051 | 0.195 ± 0.027
SAGSWIDKLPPSFTSSSPLAKRPDGTRVYAYEYTTESSPSILLVEFDASGRLRKIEKLDPETAAKAIAASAG [r5_73_JUSTAS] | 1.19 ± 0.031 | 1.22 ± 0.11 | 1.14 ± 0.071

Sequence | folding stability dG unfold [1] [kcal/mol] | folding stability dG unfold [2] [kcal/mol] | folding stability dG unfold [3] [kcal/mol]
SAGSYKLVVKAKAPKGPARIRVFVRLPGGEEKPVAEAEVGSGEVADIEITFPSGKPIDPKNIRVEIVPPSAG [r5_287_TrMRF] | 1.88 ± 0.03 | 1.8 ± 0.058 | 1.65 ± 0.066
SAGTIRGLPAEFAKRIANELAQNGYEIVAVTVTYDPPNGTFKIEVEMRPPNGKVREHDIEIQVRLPPDDSAG [r5_985_TrROS] | 1.72 ± 0.057 | 2.45 ± 0.17 | 2.7 ± 0.092
SAGTIWIPVDELKELGIPPGDTAEEFKQQISDRLMEQGWTVKIPDIEVEPLDPNDGRVWVRINIEFKPPSAG [r5_23_TrROS] | 1.26 ± 0.05 | 0.94 ± 0.17 | 0.42 ± 0.2
SAGTREQVKAIAREIANEIWDTFPDMRGQKFKVKIKVEPEPNGWVRVKVTIQFPGGVQYTFPIWIPVESAGG [r19_194_TrROS] | 3.06 ± 0.11 | 4.05 ± 0.23 | 4.4 ± 0.23
SAGVEELFRRLGAEVSVTRRPDGSLVVTFRLPDGRTIVVFVTPDGVRVVVVDPSGERRTLSLEDLKRLASAG [r14_578_TrMRF] | 3.38 ± 0.059 | 3.83 ± 0.058 | 4.098 ± 0.035
SAGVKPTPSGKNILEIDPETGKIRFVNNNGELFELPTGNDSLDAAIKEAVEKLGYPPDTPFNIDEIKIGSAG [r5_923_TrMRF] | 1.46 ± 0.044 | 1.54 ± 0.19 | 1.76 ± 0.065
SAGWIIKIYFPDKKKEIMISRFPDGQWWMVQVHDKKGEPRQTIPAGMPVDELLKDFPDAKVEVYPFEPPSAG [r5_314_TrROS] | 1.55 ± 0.039 | 2.21 ± 0.086 | 2.59 ± 0.051
SAGWKIKLENIEFFPNGRIRVMFEIEDPNGRPWRVQAQFDPDNPGKIKIKVENPDNGQEQEITFTIKPPSAG [r5_345_TrROS] | 3.15 ± 0.18 | 3.83 ± 0.24 | 4.13 ± 0.1
SAGWQTIDFPIPPGEDIPIPIGNRPLRIQVDPNKNKYEIFNPFLGYRISIDVDPGAGWIKITIEPLKPPSAG [r5_302_TrROS] | 3.34 ± 0.13 | 3.98 ± 0.26 | 4.5 ± 0.15
SAGYIIGYPIIEELFNAGKPEEIRKILKEAVEKDPDKIIIIEVPENPEIAKAIEEAFKEEGIPLIIIPESAG [r14_236_TrMRF] | 1.02 ± 0.035 | 0.929 ± 0.065 | 0.81 ± 0.1
SAGYWEFEIELPNGRKIEIEWQRMNGRYWFKIEVLDDNGKPVREVPIPFPNPEMPFEQMIKNAVKKILDSAG [r5_630_TrROS] | 2.44 ± 0.047 | 3.41 ± 0.15 | 3.898 ± 0.032
SAHTWEIWFPPGLTPEEIQEKLKEEFPGYEIDVDVERDPEPGWYRIEVTMKDPQQRRRVQKKIREILQESAG [r14_443_TrROS] | 2.34 ± 0.12 | 2.4 ± 0.14 | 2.39 ± 0.048
SAIEIYIYPDNWMISIEPPNPNGPEKEIMIPIDKDDLKNPEFLKEIADEIMENGIPVEADIMPPGQPIPSAG [r14_60_TrROS] | 0.857 ± 0.27 | 0.307 ± 0.38 | -0.0516 ± 0.13
SAIVIPIRVQMPPNDPDALEQAKEIADYIADMMMEEGYPFKIEVDDIEWERNPNGHWTVEIPIKIKPPPSAG [r14_48_TrROS] | 1.45 ± 0.18 | 1.38 ± 0.15 | 1.25 ± 0.083
SAKEPVYLVRIRVEIYKDGKPVKELEIEVEVEEGETLEEVLERLREELEKKGYKIVKVEIEVRKLPPPESAG [r14_979_TrROS_Hall] | 3.35 ± 0.13 | 4.72 ± 0.19 | 5.04 ± 0.15
SAKGTLELTFPTTKVTVEVEKVDPVNNKVYARAVFPNGFVVDAVFDPKTGKVYVEVKEVKPTKDGGYSLSAG [r14_466_TrMRF] | 1.24 ± 0.046 | 1.44 ± 0.15 | 1.46 ± 0.11
SAKIEINPEGGQIEMDYELNGKKVKITIQMPPENGMFPVKIEPPDLGKPIEVPYPFNSVDDMLDWAAEASAG [r14_803_TrROS] | 0.488 ± 0.11 | 0.433 ± 0.36 | 0.74 ± 0.13
SAKIKIEKKEDGTIVIEVEAESEEEAEEAVKELVKELEKKGIKVEVVEVKIEKDPEKKGKYRVTIVIKKSAG [r14_119_TrROS_Hall] | 2.69 ± 0.21 | 3.76 ± 0.33 | 4.39 ± 0.18
